Reference: patent US7063950

How the values were obtained:
[1] = molecular target: human neuronal calcium channel α1B-2α2bβ1-3 (human); experiment: saturation binding of 125I-ω-CgTx GVIA to transiently transfected HEK293 cells
[2] = molecular target: human neuronal calcium channel α1B-2α2bβ1-3 (human)
[3] = molecular target: human neuronal calcium channel α1B-1 subunit (human)

CKSPGSSCSPTSYNCCRSCNPYTKRCY (modifications not checked) [125I-ω-CgTx GVIA, P01522 46-72]
Bmax (sites/cell) [1]: 37700 sites/cell
Kd [1]: 0.0443 nM
fold binding capacity against α1B-2α2bβ1-2 [2]: 2 fold
fold surface receptor density against α1B-2β1-3 [2]: 13 fold
Bmax (sites/cell) [3]: 757 sites/cell
Kd [3]: 0.0317 nM
